From patent US20110236679A1 (FUJIFILM, published 2011)

Tests used:
[1] = target: T1, lysozyme (hen (hen egg lysozyme, as named for the …, UniProt P00698 19-147)); test: SPR (BIACORE 3000), 100 nM lysozyme injected for 10 min; lysozyme bound divided by fragments immobilized; VH and VL fragments immobilized one after the other without antigen
T1 construct: also called hen egg lysozyme; HEL
Method: (§1) Time-dependent change in lysozyme binding over a period of 10 minutes from starting the addition of lysozyme was measured using BIACORE 3000. The binding ratio of lysozyme was obtained by dividing the binding amount of lysozyme during the 10-minutes-period by the immobilization amount of the antibody fragments.
(§2) The binding amount of lysozyme was calculated and expressed as a relative value, assuming that the binding amount of lysozyme in Comparative Example 2 is 1.

[2] = target: T1, lysozyme; test: SPR (BIACORE 3000), 100 nM lysozyme injected for 10 min; lysozyme bound divided by fragments immobilized; fragments immobilized as 10:10:3 complex with lysozyme, antigen washed off
Method: as §1, §2

[3] = target: T2, MBP-VH(BGP) and MBP-VL(BGP), separate MBP-fused VH-region and VL-region polypeptides of the anti-osteocalcin …; test: SPR (BIACORE 3000), BGP heptapeptide over immobilized MBP-VH(BGP) and MBP-VL(BGP)
T2 construct: Two separate chains, not linked, on SENSORCHIP CM5; Substrate I was made from the 1:1:1 complex with the BGP heptapeptide, which was then washed off; In J the chains were immobilized one after the other without antigen; Both entries as printed start with the MBP leader; also called immobilization substrates I, J

T1 sequence (P00698 19-147 limits assumed): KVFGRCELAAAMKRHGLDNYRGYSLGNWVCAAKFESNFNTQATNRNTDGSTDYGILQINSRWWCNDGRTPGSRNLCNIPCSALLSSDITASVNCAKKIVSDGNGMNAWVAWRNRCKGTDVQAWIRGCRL

B1: VH(HEL)-His6 and VL(HEL)-His10, separate VH-region and VL-region polypeptides of the anti-hen egg lysozyme antibody LxE16, immobilized together on a sensor chip (other)
VH: EVQLQESGPSLVKPSQTLSLTCSVTGDSITRGYWSWIRKFPGNKLEYMGYISYSGSTFYNPSLKSRISITRDTFKNQLYLQLNSVTTEDTATYYCAEYDGTYWGQGTTVTVHHHHHHGAAEQKLISEEDLNGAA
VL: VEFAAQPAMASTDILMTQTPATLSVTPGDSVSLSCRASQSIGNNLHWFQQKSHESPRLLIKYASQSISGIPSRFSGSGSGTDFTLSINTVETEDFGMYFCQQSNSWPYTFGGGTKLEIKRAAAEHHHHHHHHHH
notes: Two separate chains, not linked; Substrate G was made from the 10:10:3 complex with lysozyme, which was then washed off; In H the chains were immobilized one after the other without antigen; also called immobilization substrates G, H
B1 was tested, and the Lysozyme binding ratio [1] was 1 relative value (text: Comparative Example 2 = 1; in the table Comparative Example 4 stands at 1) and the Lysozyme binding ratio [2] was 7.6 relative value (text: Comparative Example 2 = 1; in the table Comparative Example 4 stands at 1).

B2: C-terminal heptapeptide fragment of BGP (RRFYGPY) (peptide)
peptide: RRFYGPY
notes: also called BGP heptapeptide; osteocalcin C-terminal heptapeptide
B2: binds [3].
